Test results taken from PMC4772626.
Several values for one entry are separate records, joined by “and”; a condition that tells them apart may be missing. Identical values can stand only once.

Target: SMV helper component protease tagged with the Flag epitope at the N-terminus (soybean mosaic virus strain G7H)
Assay: affinity purification with mass spectrometry; crude extract of upper symptomatic soybean leaves at 15 dpi (20 mM Tris-HCl pH 7.5, 300 mM NaCl, 5 mM MgCl2, 5 mM dithiothreitol, 0.5% Triton X-100); anti-Flag antibody-conjugated agarose beads 16 h at 4 °C, five washes; 10% SDS-PAGE, Coomassie blue, dominant bands excised and identified by LC-MS/MS; Flag-tagged GFP as negative control

In the case of “SMV helper component protease tagged with the Flag epitope at the N-terminus (natural protein)”, the stoichiometry N is reported as 4 and 2.
